The text below walks through data of US7910111.

Assay [1] concerns the target Recombinant RGS-(His)6-NSF (N-ethylmaleimide sensitive factor), wild-type (UniProt P18708). Put plainly: cell-based or functional assay.
Assay [2] addresses Endogenous NSF of human aortic endothelial cells (HAEC) (human) (UniProt P46459). Put plainly: cell-based or functional assay.

Recombinant RGS-(His)6-NSF (N-ethylmaleimide sensitive factor), wild-type, sequence (P18708 other isoform, or with tags, fused parts or gaps limits assumed): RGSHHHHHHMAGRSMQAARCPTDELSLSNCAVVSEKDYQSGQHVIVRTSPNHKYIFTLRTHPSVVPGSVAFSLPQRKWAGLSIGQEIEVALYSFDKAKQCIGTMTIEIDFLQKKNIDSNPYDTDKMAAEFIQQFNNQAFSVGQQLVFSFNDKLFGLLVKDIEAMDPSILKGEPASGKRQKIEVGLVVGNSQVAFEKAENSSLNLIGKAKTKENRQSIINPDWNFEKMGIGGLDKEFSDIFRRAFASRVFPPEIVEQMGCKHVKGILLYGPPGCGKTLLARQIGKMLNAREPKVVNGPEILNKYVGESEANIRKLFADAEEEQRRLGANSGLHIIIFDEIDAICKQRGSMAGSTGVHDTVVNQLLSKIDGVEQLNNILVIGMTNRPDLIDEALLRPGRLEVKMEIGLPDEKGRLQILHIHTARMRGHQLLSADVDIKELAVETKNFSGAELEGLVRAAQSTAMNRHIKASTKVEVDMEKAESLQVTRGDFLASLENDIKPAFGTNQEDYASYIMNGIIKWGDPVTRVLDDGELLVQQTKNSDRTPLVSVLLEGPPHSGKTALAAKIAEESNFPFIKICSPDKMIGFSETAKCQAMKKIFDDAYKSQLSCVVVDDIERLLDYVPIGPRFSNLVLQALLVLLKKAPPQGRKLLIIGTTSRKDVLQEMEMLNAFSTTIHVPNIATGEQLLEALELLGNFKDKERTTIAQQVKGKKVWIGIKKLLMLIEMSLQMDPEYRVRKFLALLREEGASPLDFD

For the substance TAT-NSF81 (peptide), the IC50% of NSF ATPase activity in assay [1] is 1 to 10 µM. In assay [2], this substance registered an IC50% of endothelial exocytosis (vWF release) of 1 to 10 µM.
